The source of these data is article doi:10.1101/2024.05.21.594841 (bioRxiv, 2024).

Where two headings read alike, the source gives them in different places.

Common to all, as to experiment: split reporter
One experiment has as its target T1, Scj1p (S. cerevisiae, UniProt P25303 22-377).
T1 sequence: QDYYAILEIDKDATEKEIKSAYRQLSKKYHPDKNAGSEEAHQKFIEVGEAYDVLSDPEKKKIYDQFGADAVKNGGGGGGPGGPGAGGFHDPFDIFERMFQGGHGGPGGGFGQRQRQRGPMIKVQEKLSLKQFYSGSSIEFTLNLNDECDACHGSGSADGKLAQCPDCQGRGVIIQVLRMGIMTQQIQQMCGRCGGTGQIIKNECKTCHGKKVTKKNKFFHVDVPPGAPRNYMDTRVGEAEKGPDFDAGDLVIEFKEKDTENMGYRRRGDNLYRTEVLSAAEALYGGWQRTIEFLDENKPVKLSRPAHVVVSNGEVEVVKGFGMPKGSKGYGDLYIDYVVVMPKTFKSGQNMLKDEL

The target of the next experiment is T2, Sil1p (S. cerevisiae, UniProt Q08199 20-421).
T2 sequence: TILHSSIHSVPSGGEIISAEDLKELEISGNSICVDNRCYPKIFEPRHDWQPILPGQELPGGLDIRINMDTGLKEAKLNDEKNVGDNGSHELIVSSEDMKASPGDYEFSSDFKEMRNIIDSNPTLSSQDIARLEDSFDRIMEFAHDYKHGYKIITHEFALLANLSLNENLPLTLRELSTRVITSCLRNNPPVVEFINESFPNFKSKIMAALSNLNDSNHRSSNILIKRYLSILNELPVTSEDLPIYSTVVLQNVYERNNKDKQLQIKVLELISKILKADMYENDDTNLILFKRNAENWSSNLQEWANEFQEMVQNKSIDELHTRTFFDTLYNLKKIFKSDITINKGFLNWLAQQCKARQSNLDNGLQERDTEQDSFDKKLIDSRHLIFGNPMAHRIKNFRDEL

In experiment [1] the target is T3, Kar2p (S. cerevisiae, UniProt P16474 43-682).
The target of experiment [2] is T4, Cpr5p (S. cerevisiae, UniProt P35176 23-225).
The target of another experiment is T5, Lto1p (yeast, UniProt P53846 1-162).
T5 sequence: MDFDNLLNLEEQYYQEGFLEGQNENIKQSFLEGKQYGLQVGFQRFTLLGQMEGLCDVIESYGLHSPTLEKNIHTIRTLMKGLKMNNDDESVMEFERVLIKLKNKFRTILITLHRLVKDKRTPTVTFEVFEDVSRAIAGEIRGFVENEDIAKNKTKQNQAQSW

The target in experiment [3] is T4, Cpr5p. This is another data set of the same source.
Experiment [4] addresses T3, Kar2p. The source holds these as a separate data set.

T4 sequence (P35176 23-225): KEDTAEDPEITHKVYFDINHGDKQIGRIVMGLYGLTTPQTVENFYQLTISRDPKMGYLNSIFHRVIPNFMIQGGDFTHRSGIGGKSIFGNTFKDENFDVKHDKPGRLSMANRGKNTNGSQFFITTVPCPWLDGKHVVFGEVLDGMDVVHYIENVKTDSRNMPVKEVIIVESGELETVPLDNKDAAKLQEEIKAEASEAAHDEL
T3 sequence (P16474 43-682): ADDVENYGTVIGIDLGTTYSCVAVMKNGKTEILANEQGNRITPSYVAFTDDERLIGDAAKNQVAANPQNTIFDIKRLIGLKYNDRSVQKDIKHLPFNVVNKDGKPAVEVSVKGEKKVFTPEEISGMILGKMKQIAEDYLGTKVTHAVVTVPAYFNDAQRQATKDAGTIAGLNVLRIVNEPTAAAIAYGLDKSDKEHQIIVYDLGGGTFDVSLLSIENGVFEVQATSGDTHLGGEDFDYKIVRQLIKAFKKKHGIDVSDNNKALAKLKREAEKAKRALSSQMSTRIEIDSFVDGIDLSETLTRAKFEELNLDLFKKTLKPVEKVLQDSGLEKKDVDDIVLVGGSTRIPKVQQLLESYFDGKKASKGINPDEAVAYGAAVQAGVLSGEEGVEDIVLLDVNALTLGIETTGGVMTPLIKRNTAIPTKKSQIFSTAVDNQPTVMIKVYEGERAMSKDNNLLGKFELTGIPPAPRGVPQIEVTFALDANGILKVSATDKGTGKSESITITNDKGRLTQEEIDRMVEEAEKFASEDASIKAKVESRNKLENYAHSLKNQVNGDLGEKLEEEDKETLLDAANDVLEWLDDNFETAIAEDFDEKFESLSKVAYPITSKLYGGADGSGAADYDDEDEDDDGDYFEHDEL

B1: Eug1p (natural protein)
chain: TPGSDLLVLTEKKFKSFIESHPLVLVEFFAPWCLHSQILRPHLEEAASILKEHNVPVVQIDCEANSMVCLQQTINTYPTLKIFKNGRIFDGQVYRGVKITDEITQYMIQLYEASVIYLNSEDEIQPYLENATLPVVINRGLTGLNETYQEVALDLAEDYVFLSLLDSEDKSLSIHLPNTTEPILFDGNVDSLVGNSVALTQWLKVVILPYFTDIEPDLFPKYISSNLPLAYFFYTSEEELEDYTDLFTQLGKENRGQINFIALNSTMFPHHVRFLNMREQFPLFAIHNMINNLKYGLPQLPEEEYAKLEKPQPLDRDMIVQLVKDYREGTAKPIVKSEEIPKEQKSNVYKIVGKTHDDIVHDDDKDVLVKYYATWCIHSKRFAPIYEEIANVLASDESVRDKILIAEVDSGANDILSFPVTGYPTIALYPAGNNSKPIIFNKIRNLEDVFEFIKESGTHHIDGQAIYDKLHQAKDSEVSTEDTVHDEL
Molecule B1 yielded a normalized interacting score with Scj1p of 5%.

B2: Sec20p (natural protein)
chain: MVVTFLQDLEVLQDALLNNLQKLSAISRRKESGESKHDNKDSFAAIANEHNDEEEEIEFEDLVNIIESKVSDFESVLKCSIVEMTYKYPELKLQWEKSPRYDQCDKLHIVKLDKQMNEDIYAQLVEELDFVLQFVDWFYCYRLKVKEILRQHHKRDLAWNDEKRDRAIKFHAVDYDKLHQGTSSSSSLTSTSMEKASTREKLLSKTKQLTNNLVRGNQILQSGILQSDLNLDELRAQTNSLTQIDDKYTQFETVFKKTADLVKVLENASHQEKRDVYLSLGFLLCCVSWVLWRRIFKLPVKLGLWLLFKFFKGILVTLGLVKSYAGSSSSLQAPSLVLNAPILATTTTSSATSVEPFASVSAVSSIQRAVDEAVDRIVSHDEL
For the molecule B2, the normalized interacting score in the experiment with Sil1p stood at 32%; with Kar2p [1], 42%; with Cpr5p [2], 26%.

B3: Yae1p (natural protein)
chain: MSNTWDDVWASDSDVETERSPDLVKLRENHSKRGYLDGIVSSKEEKLQEGFNDGFPTGAKLGKQVGIIMGILLGLRTRFGDEDEDLSKAYIDAQKELRINKVLSKSIFDPNFDLQEKHPLITKWTDIANTYCEKYHVPSIQ
Molecule B3 yielded a normalized interacting score with Lto1p of 96%.

B4: Pdi1p (natural protein)
chain: PEDSAVVKLATDSFNEYIQSHDLVLAEFFAPWCGHCKNMAPEYVKAAETLVEKNITLAQIDCTENQDLCMEHNIPGFPSLKIFKNSDVNNSIDYEGPRTAEAIVQFMIKQSQPAVAVVADLPAYLANETFVTPVIVQSGKIDADFNATFYSMANKHFNDYDFVSAENADDDFKLSIYLPSAMDEPVVYNGKKADIADADVFEKWLQVEALPYFGEIDGSVFAQYVESGLPLGYLFYNDEEELEEYKPLFTELAKKNRGLMNFVSIDARKFGRHAGNLNMKEQFPLFAIHDMTEDLKYGLPQLSEEAFDELSDKIVLESKAIESLVKDFLKGDASPIVKSQEIFENQDSSVFQLVGKNHDEIVNDPKKDVLVLYYAPWCGHCKRLAPTYQELADTYANATSDVLIAKLDHTENDVRGVVIEGYPTIVLYPGGKKSESVVYQGSRSLDSLFDFIKENGHFDVDGKALYEEAQEKAAEEADADAELADEEDAIHDEL
As to B4, the normalized interacting score amounted to 18% in the experiment with Cpr5p [3] and 32% with Cpr5p [2].

B5: Sed4p (natural protein)
chain: MSGNSANYDVGYPIYGAKFINEGTLLVAGGGGQFNSSFPNKITALKVNFQKKKHIRRFREITLDSIDDAPTSLDCNNNLILVGCNELFNDSSMENVNHHLRKFVFEQEHLKFVASIDFNRTTDPSVFTKFVYINQRATVAAIASSEVPTVIRIIDPRNLTENYEIETGREVNDLHFAPNGILLSYITSNSLEVASVRDGNFVARKTDFDKNLVLSNIRFLNDNTLLVAASLSNSDGVSLLKLGVSSKGVKILKTASFMFDLNGITSMDVSPNKKFVALSSNDNLVAIVSVEKLKLVQLVPRVHESTITKVTFSPDSRYLASTSMGNTINVLKLSGTSSSILRNIWKFFLNFVLLVVLAGAIQLGYKHNVHGFIYKHAHDIYKSKFKENTTIDQGSSSYFTINDDYRGITESADIISATDVASDIETEFSSFDTSTMRTTTEDEQKFVWISSSADSQFTSADIPTSASSSSSSSSSSFYEESVTNEPIVSSPTSEITKPLASPTEPNIVEKPSLPLNSESIDLLSSSSNSITEYPEPTPDLEEKLSSLIVEQSESEITTDRESVSKLLSTESPSLSHMPSSSSSSLSLSSSLTTSPTTALSTSTATAVTTTQTNPTNDAANTSFLDNSKPASTREIYKTKIITEVITKIEYRNIPASDSNAEAEQYVTTSSSMLLTPTDTMVSSPVSEIDPIASELERMVETPTHSISIASEFDSVASNLIPNEEILSTSASQDSISSHPSTFSDSSITSGFQSIEVSTVTSSVLASESIPSISDSTFSKFHSISEPVSSAIVETATSSFSKTETKTSRVIAFSTEDSERSSALIDNSEYTSVLADNLEPTSVLADNSEPTSVLADSSEPTSVFTDAVQSPKTSVGQSSLSESTNIEGTSMASMIFSSSGASIGALSDIGKGTLSVESASSTVAQPMPGVTTTAPSFVSSPHKISASSIDASGFVQKEIMIEVQSSKDSSEAFGVRHKISENVNTPVSRMLTTEMQASGTVDVTEDVSLSSEVISALNVEITSLPNPVAPPQTIAAPLNNNSNTNIVNDDNAVAGTVNYAGLHDEL
In the experiment with Kar2p [4], B5 had a normalized interacting score of 34%.
